Assay [1] deals with T1, human serum albumin (HSA) (Sigma-Aldrich) (human, UniProt P02768 25-609). Description: BLI (Octet RED), second run. (In general: BLI is a label-free optical method that tracks binding on a fibre tip over time.)
Description: (§1) The binding and dissociation kinetics were obtained using Octet QK software. Binding rate constants were calculated such that the observed binding curves are fitted to a 1:1 binding model.
In assay [2] the target is T1, human serum albumin (HSA) …. Description: BLI (Octet RED), HSA immobilised on AR2G biosensor, first run.
Description: as §1
Assay [3] has the same target. Description: BLI (Octet RED).
Description: as §1
Assay [4] shares this target. The assay is described as follows: BLI (Octet RED), average of two runs.
Description: as §1
The target of assay [5] is T2, recombinant human CD40L (rhCD40L-his) (human, UniProt P29965 113-261, limits assumed).
T2 construct: The construct is purified by IMAC and named rhCD40L-his; also called rhCD40L antigen; soluble CD40L
T2 sequence (looked up): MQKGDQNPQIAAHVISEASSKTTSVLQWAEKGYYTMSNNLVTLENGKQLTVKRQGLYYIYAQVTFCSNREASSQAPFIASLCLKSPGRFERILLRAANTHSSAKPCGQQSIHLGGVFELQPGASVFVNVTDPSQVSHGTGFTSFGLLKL
Description: BLI (Octet RED), CD40L immobilised on AR2G biosensor.
Description: (§2) The purified antibodies were continuously treated in a 1× kinetic buffer at pH 7.4 for two-fold dilution.

Assay [6] has as its target T2, recombinant human CD40L (rhCD40L-his). Description: ELISA, CD40L coated, anti-human Fd-HRP. Background: An ELISA detects its analyte on a solid surface through an enzyme-linked reagent.
Description: HRP-conjugated goat anti-human Fd antibodies were used as secondary antibodies.
Assay [7] concerns the target T3, recombinant human TNF-α protein (BioLegend) (human, UniProt P01375 77-233).
T3 construct: also called soluble TNF-α; recombinant soluble TNF-α protein
Description: BLI (Octet RED), TNF-α immobilised on AR2G biosensor.
Description: as §2

In assay [8] the target is T1, human serum albumin (HSA) …. Description: BLI (Octet RED), HSA immobilised on AR2G biosensor.
Description: as §2
Assay [9] deals with T3, recombinant human TNF-α protein …. Description: cell-based or functional assay.
Assay [10] deals with T4, cellular membrane CD40L expressed on D1.1 cells (CRL-10915) (UniProt P29965 1-261, limits assumed).
T4 construct: whole, on cells; also called mCD40L; cell membrane CD40L
T4 sequence (looked up): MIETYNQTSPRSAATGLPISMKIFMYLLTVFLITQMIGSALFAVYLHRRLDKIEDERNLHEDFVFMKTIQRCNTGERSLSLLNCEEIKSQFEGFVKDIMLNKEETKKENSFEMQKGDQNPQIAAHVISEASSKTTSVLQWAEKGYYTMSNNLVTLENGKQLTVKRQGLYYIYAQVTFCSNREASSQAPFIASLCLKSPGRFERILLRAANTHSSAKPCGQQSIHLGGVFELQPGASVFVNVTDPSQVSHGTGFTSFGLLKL
Description: flow cytometry on D1.1 cells, anti-human kappa-FITC. In general terms: Flow cytometry measures light scatter and fluorescence of single cells or particles in a stream.

One may read the Kd as a measure of binding affinity in units of concentration. What is called koff is the first-order rate constant of dissociation. For orientation: kon means a measure of how fast the partners come together.

T3 sequence (P01375 77-233 limits assumed): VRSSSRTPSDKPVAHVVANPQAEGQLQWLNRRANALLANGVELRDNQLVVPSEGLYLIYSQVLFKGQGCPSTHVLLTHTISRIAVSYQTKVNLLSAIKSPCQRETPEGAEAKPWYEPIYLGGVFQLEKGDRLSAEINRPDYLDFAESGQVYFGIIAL

B1: APB-A1, recombinant antibody (anti-CD40L scFv)2-anti-HSA Fab (bispecific antibody)
heavy: DIVLTQSPATLSVSPGERATISCRASQRVSSSTYSYMHWYQQKPGQPPKLLIKYASNLESGVPARFSGSGSGTDFTLTISSVEPEDFATYYCQHSWEIPPTFGGGTKLEIKRGGGGSGGGGSGGGGSQVQLVQSGAEVVKPGASVKLSCKASGYIFTSYYMYWVKQAPGQGLEWIGEINPSNGDTNFNEKFKSKATLTVDKSASTAYMELSSLRSEDTAVYYCTRSDGRNDMDSWGQGTLVTVSSGGGGSGGGGSGGGGSQVQLVQSGGGPVKPGGSLRLSCAASGFMFRAYSMNWVRQAPGKGLEWVSSISSSGRYIHYADSVKGRFTISRDNAKNSLYLQMNSLRAEDTAVYYCARETVMAGKALDYWGQGTLVTVSSASTKGPSVFPLAPSSKSTSEGTAALGCLVKDYFPEPVTVSWNSGALTSGVHTFPAVLQSSGLYSLSSVVTVPSSSLGTQTYICNVNHKPSNTKVDKKVEPKSS
light: DIVLTQSPATLSVSPGERATISCRASQRVSSSTYSYMHWYQQKPGQPPKLLIKYASNLESGVPARFSGSGSGTDFTLTISSVEPEDFATYYCQHSWEIPPTFGGGTKLEIKRGGGGSGGGGSGGGGSQVQLVQSGAEVVKPGASVKLSCKASGYIFTSYYMYWVKQAPGQGLEWIGEINPSNGDTNFNEKFKSKATLTVDKSASTAYMELSSLRSEDTAVYYCTRSDGRNDMDSWGQGTLVTVSSGSTSGSGKPGSGEGSTKGDIVLTQSPGTLSLSPGETATLSCRASQSVGSNLAWYQQKPGQAPRLLIYGASTGATGVPARFSGSRSGTDFTLTITSLQPEDFATYYCQQYYSFLAKTFGQGTQLEIKRTVAAPSVFIFPPSDEQLKSGTASVVCLLNNFYPREAKVQWKVDNALQSGNSQESVTEQDSKDSTYSLSNTLTLSKADYEKHKVYACEVTHQGLSSPVTKSFNRGES
notes: also called (anti-hu5c8 scFv)2-SL335; (scFv)2-Fab
B1 gave a Kd in assay [1] of 0.628 nM. In assay [2], the Kd worked out at 0.748 nM. For the same molecule, the “fold of KD against SL335-HSA KD” value in assay [3] was ~2.6 fold. In [4], this molecule displayed a Kd of 0.688 nM, a koff of 0.00056 s⁻¹ and a kon of 804000 M⁻¹ s⁻¹.

B2: APB-B1a, (anti-CD40L scFv)2-(anti-HSA Fab)-(anti-TNF-α Fv) (bispecific antibody)
heavy: DIVLTQSPATLSVSPGERATISCRASQRVSSSTYSYMHWYQQKPGQPPKLLIKYASNLESGVPARFSGSGSGTDFTLTISSVEPEDFATYYCQHSWEIPPTFGQGTKLEIKRGGGGSGGGGSGGGGSQVQLVQSGAEVVKPGASVKLSCKASGYIFTSYYMYWVKQAPGQGLEWIGEINPSNGDTNFNEKFKSKATLTVDKSASTAYMELSSLRSEDTAVYYCTRSDGRNDMDSWGQGTLVTVSSGGGGSGGGGSGGGGSQVQLVQSGGGPVKPGGSLRLSCAASGFMFRAYSMNWVRQAPGKGLEWVSSISSSGRYIHYADSVKGRFTISRDNAKNSLYLQMNSLRAEDTAVYYCARETVMAGKALDYWGQGTLVTVSSASTKGPSVFPLAPSSKSTSEGTAALGCLVKDYFPEPVTVSWNSGALTSGVHTFPAVLQSSGLYSLSSVVTVPSSSLGTQTYICNVNHKPSNTKVDKKVEPKSSGGGGSGGGGSGGGGSEVQLVESGGGLVQPGGSLRLSCAASGYVFTDYGMNWVRQAPGKGLEWMGWINTYIGEPIYADSVKGRFTFSLDTSKSTAYLQMNSLRAEDTAVYYCARGYRSYAMDYWGQGTLVTVSS
light: DIVLTQSPATLSVSPGERATISCRASQRVSSSTYSYMHWYQQKPGQPPKLLIKYASNLESGVPARFSGSGSGTDFTLTISSVEPEDFATYYCQHSWEIPPTFGQGTKLEIKRGGGGSGGGGSGGGGSQVQLVQSGAEVVKPGASVKLSCKASGYIFTSYYMYWVKQAPGQGLEWIGEINPSNGDTNFNEKFKSKATLTVDKSASTAYMELSSLRSEDTAVYYCTRSDGRNDMDSWGQGTLVTVSSGSTSGSGKPGSGEGSTKGDIVLTQSPGTLSLSPGETATLSCRASQSVGSNLAWYQQKPGQAPRLLIYGASTGATGVPARFSGSRSGTDFTLTITSLQPEDFATYYCQQYYSFLAKTFGQGTQLEIKRTVAAPSVFIFPPSDEQLKSGTASVVCLLNNFYPREAKVQWKVDNALQSGNSQESVTEQDSKDSTYSLSNTLTLSKADYEKHKVYACEVTHQGLSSPVTKSFNRGESGGGGSGGGGSGGGGSDIQMTQSPSSLSASVGDRVTITCKASQNVGTNVAWYQQKPGKAPKALIYSASFLYSGVPYRFSGSGSGTDFTLTISSLQPEDFATYYCQQYNIYPLTFGQGTKVEIKR
notes: also called APB-1a; (scFv)2-Fab-Fv (certolizumab)
On to B2, for which, in assay [5], the Kd worked out at 0.192 nM, the koff stood at 0.000113 s⁻¹ and the kon was 590000 M⁻¹ s⁻¹. In addition, the “fold lower binding capacity against anti-human CD40L IgG1 (ruplizumab)” value in assay [6] is ~1.5 fold. Besides, in assay [7], the Kd worked out at 0.164 nM, the koff worked out at 3.82e-05 s⁻¹ and the kon was determined as 230000 M⁻¹ s⁻¹. In addition, in [8], the Kd amounted to 0.765 nM, the koff amounted to 0.00042 s⁻¹ and the kon turned out to be 549000 M⁻¹ s⁻¹. In addition, in assay [9], the “IC50, HEK-Blue reporter (SEAP), soluble TNF-α 10 ng/ml (FIG. 22B)” value came out at 3.05 nM and the “IC50, inhibition of TNF-α mediated cytotoxicity, L929 mouse cells, HSA present (CCK-8)” value was found to be 5.3 nM.

B3: SL335 Fab (anti-HSA Fab) (Fab, V domains shown)
VH: QVQLVQSGGGPVKPGGSLRLSCAASGFMFRAYSMNWVRQAPGKGLEWVSSISSSGRYIHYADSVKGRFTISRDNAKNSLYLQMNSLRAEDTAVYYCARETVMAGKALDYWGQGTLVTVSS
VL: DIVLTQSPGTLSLSPGETATLSCRASQSVGSNLAWYQQKPGQAPRLLIYGASTGATGVPARFSGSRSGTDFTLTITSLQPEDFATYYCQQYYSFLAKTFGQGTQLEIKR
notes: also called anti-HSA Fab (SL335)
On to B3, for which, in [10], the binding result is listed as “no binding”. In assay [8], the Kd stood at 0.286 nM, the koff was 0.000288 s⁻¹ and the kon turned out to be 1.01e+06 M⁻¹ s⁻¹.

The values above are taken from patent publication US20230220093A1 (published 2023).
